Results: the supplement of paper PMC9732359
± gives the uncertainty stated by the source.

Assay: protein stability index of a GFP-peptide fusion (yeast GPS) (PSI 1-4); higher = more stable; sorted into four equal gates, so the index is relative within each strain
Procedure, shortened: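 Tiled 17-residue peptides from yeast proteins were fused downstream of GFP on a plasmid that also expresses Cherry, and the pooled library was carried in yeast. Mid-log cultures grown in leucine-free medium were sorted into four equal gates by GFP/Cherry fluorescence ratio. Plasmids from each gate were PCR-amplified and Illumina-sequenced, and reads were assigned to strains by barcodes. Each peptide's protein stability index is the sum, over gates, of the gate's read frequency multiplied by its gate number.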

Sequence | protein stability index (doa10∆) | protein stability index (pdr5∆) | protein stability index (san1∆) | protein stability index (ubr1∆)
KISLLRPSFQNNRISNA [SWP82] | 2.46 ± 0.042 | 2.37 ± 0.046 | 2.23 ± 0.078 | 2.27 ± 0.041
KITDKEDLLHYIEEKHP [POP4] | 3.48 ± 0.1 | 3.3 ± 0.064 | 3.23 ± 0.057 | 3.24 ± 0.076
KKAAEEAGVTDVKVSIS [FAS2] | 1.44 ± 0.09 | 1.66 ± 0.08 | 2.23 ± 0.24 | 1.18 ± 0.1
KKCPFTGLVSIRGKILT [RPS11A] | 1.7 ± 0.058 | 1.53 ± 0.06 | 1.47 ± 0.12 | 1.88 ± 0.055
KKECALLISYGVSIENE [SRB4] | 1.75 ± 0.085 | 1.9 ± 0.16 | 1.96 ± 0.24 | 2.03 ± 0.16
KKEYIELDILNKGWKLQ [SRB4] | 2.29 ± 0.13 | 3.38 ± 0.17 | 2.76 ± 0.089 | 2.94 ± 0.16
KKGVRVTLDITTLTIMR [RPT4] | 2.48 ± 0.093 | 2.08 ± 0.11 | 2.23 ± 0.079 | 2.56 ± 0.082
KKINRRNETSVDEEDEN [YCG1] | 3.41 ± 0.1 | 3.38 ± 0.098 | 2.79 ± 0.14 | 3.31 ± 0.12
KKKGLDENTSGKISKPR [PRP28] | 3.5 ± 0.091 | 3.23 ± 0.14 | 3.52 ± 0.065 | 3.45 ± 0.099
KKLDYVLALKVEDFLER [RPS9A] | 1.76 ± 0.092 | 2.73 ± 0.079 | 2.08 ± 0.067 | 2.72 ± 0.072
KKLNKNKKLIKKLSKKY [RPL1A] | 3.78 ± 0.21 | 3.43 ± 0.11 | 3.1 ± 0.12 | 3.52 ± 0.22
KKNIQKAKSNQTQREKA [IRR1] | 2.59 ± 0.099 | 2.65 ± 0.11 | 2.77 ± 0.11 | 2.73 ± 0.066
KKPSPQTIPIQIYGFEG [YGR119C/NUP57] | 2.61 ± 0.26 | 3.06 ± 0.22 | 2.49 ± 0.15 | 3.08 ± 0.17
KKRSHHGKASRQQYYSG [SNF6] | 3.05 ± 0.088 | 3.11 ± 0.062 | 2.92 ± 0.065 | 2.98 ± 0.079
KKSKIQLLDIAEFKKEN [LIN1] | 1.42 ± 0.1 | 2.29 ± 0.13 | 2.44 ± 0.16 | 2.99 ± 0.11
KKSKLISLYLLNLLSQN [RPN12] | 1.31 ± 0.057 | 1.97 ± 0.062 | 1.26 ± 0.094 | 1.84 ± 0.046
KKSRSNLSQENDNEGKH [YAR002W/NUP60] | 2.77 ± 0.058 | 3.12 ± 0.052 | 2.91 ± 0.049 | 3.11 ± 0.044
KKVSRRNARATRAAKIA [RPL13A] | 2.25 ± 0.085 | 2.9 ± 0.1 | 2.39 ± 0.077 | 2.77 ± 0.045
KKYLKKNQLRDWIRFVS [RPL22A] | 1.8 ± 0.06 | 1.68 ± 0.062 | 1.2 ± 0.14 | 1.12 ± 0.09
KLFVSKEHAPYTDELEE [FAS2] | – | 1.61 ± 0.12 | 1.56 ± 0.28 | 1.83 ± 0.15
KLHFKDTKPFLNKDSTN [NUT1] | 2.51 ± 0.098 | 2.23 ± 0.073 | 1.99 ± 0.071 | 2.6 ± 0.041
KLIIHRKNDNANDHDES [SMC3] | – | 1.73 ± 0.21 | – | 1.36 ± 0.11
KLIKFETRNEDDVVVLT [FAS1] | 3.32 ± 0.17 | 2.93 ± 0.13 | 3.07 ± 0.063 | 3.12 ± 0.16
KLITTYISLLKLQGLYE [YDL116W/NUP84] | 2.23 ± 0.059 | 1.82 ± 0.061 | 1.66 ± 0.072 | 1.72 ± 0.052
KLKYHDFLRKATAFNKT [RPL16A] | 1.16 ± 0.13 | 1.24 ± 0.14 | – | 1.22 ± 0.15
KLLATSTKIIMLLLNDS [SRB8] | 1.57 ± 0.065 | 1.46 ± 0.059 | 1.48 ± 0.16 | 1.23 ± 0.071
